Source: PMC7219239, “Folding-Based Electrochemical Aptasensor for the Determination of β-Lactoglobulin on Poly-L-Lysine Modified Graphite Electrodes”

Molecular target: T1, beta-lactoglobulin B (β-LG) (Bos taurus? (cow's milk), UniProt P02754 17-178)
T1 sequence: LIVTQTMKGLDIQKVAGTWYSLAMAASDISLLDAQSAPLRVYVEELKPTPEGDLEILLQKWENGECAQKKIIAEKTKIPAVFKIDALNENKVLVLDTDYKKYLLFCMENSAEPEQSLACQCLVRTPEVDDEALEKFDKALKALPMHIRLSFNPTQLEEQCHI
Assay: electrochemical folding-based aptasensor (DPV, MB signal-on); PBS-based buffer without MgCl2; 45 min incubation; linear 0.1-10 ng/mL, LOD 0.09 ng/mL; no Kd in the material; Measurement in PBS-based buffer without MgCl2 (wash buffer 0.1 M PBS, 150 mM NaCl, pH 7.4), 45 min; aptamer immobilized at 1 µM in 50 mM Tris, 150 mM NaCl, 2 mM MgCl2, pH 7.4; temperature not stated
Settings: protein: commercial; chain copies: 2; label: methylene blue (3')

B1: anti-β-LG aptamer, thiolated, MB-tagged (ssDNA)
DNA: CGACGATCGGACCGCAGTACCCACCCACCAGCCCCAACATCATGCCCATCCGTGTGTG
modifications: 5'-thiol (HS); 3'-methylene blue
B1: binds.
